Legend:
CyPet-XCTK2 (Xenopus) = CyPet-XCTK2 (Xenopus) (UniProt P79955); assay: FRET or BRET
YPet-XCTK2 (Xenopus) = YPet-XCTK2 (Xenopus) (UniProt P79955); assay: FRET or BRET
[1] = molecular target: 6His-YPet-XCTK2-Tail (Xenopus) (UniProt P79955); assay: co-sedimentation
microtubules = assay: co-sedimentation

Molecule: 6His-importin α-YPet (natural protein)
- fold decrease of Kd with importin β against without importin β (CyPet-XCTK2 (Xenopus)): 5 fold

Molecule: importin α-CyPet (natural protein)
- mean line scan CyPet lifetime (importin α-CyPet + Ran without YPet 1.68) (YPet-XCTK2 (Xenopus)): 1.55 ns

Molecule: importin α-6His (natural protein)
- percent decrease of the amount of YPet-XCTK2-Tail bound to MTs (1× importin α/β) [1]: 46%
- percent decrease of the amount of YPet-XCTK2-Tail bound to MTs (4× importin α/β) [1]: 53%

B1: 6His-YPet-XCTK2-Tail (domain or fragment)
chain: DSTDKKVQVASRLPVPPKRKYVSNDENQEQMQRKRLRSSLESELPAVRVAASIATSKPRAAPVAALPKPQVIGRQSLAVMRPKNSGPGITSTSFSGKTKVSSSVTQPAAIGAEKKKRAA
- fold increase of Kd with 4× importin α/β against no importin α/β (microtubules): 10 fold

From PMC7041689
